pEC50: −log10 of the molar value. Several values for one entry are separate records, joined by “and”; a condition that tells them apart may be missing. Equal entries are not always repeated.
How the values were obtained:
[1] = test system: Agr QS in the S. aureus reporter strain; assay: Solution Assay: fluorescence reporter assay (agrP3-mkate2 normalized to sarAP1-gfpmut2), plate reader; assay type: cell-based, Staphylococcus aureus; details: activation of Agr QS, compound in solution; n=3 experiments
Method: Transcription from fluorescence reporter genes was measured in S. aureus strain MK242. Overnight cultures were diluted 1:200 into fresh TSB with 10 µg/ml tetracycline and 10 µg/ml erythromycin, re-grown, and 90 μl of these cultures were distributed into wells of 96 well plates (MatTek, Ashland, Mass.), followed by addition of 10 μl of AIP-I and/or TrAIP-II and/or derivatives. Subsequently, 50 μl of mineral oil was added (Sigma, St. Louis, Mo.) to prevent evaporation. Using a Synergy 2 plate reader (Biotek, Winooski, Vt.), GFPmut2 and mKate2 levels were measured at 484 nm/528 nm and 588 nm/633 nm, respectively. Measurements were conducted with 15 min intervals at 37° C. with shaking. This assay was called “Solution Assay”.
To make AIP-I amenable to surface attachment, AIP-I containing an alkyne at the N-terminus was synthesized (FIG. 7A and FIG. 8A). This compound was called “Alkyne-AIP-I” (FIG. 2A). Prior to attaching the Alkyne-AIP-I to the surface linkers, the click reaction was carried out between the Alkyne-AIP-I and a surface-free version of the PEG330-azide linker to test if the AIP-I derivatives retained their activation capability following the click reaction. […] This compound was called “PEG330-triazole-AIP-I” (FIG. 2A (iii), FIG. 7A and FIG. 8B).
It was investigated whether a QS antagonist, when immobilized on a surface, could interfere with Agr QS signal transduction. […]

[2] = test system: Agr QS in the S. aureus reporter strain; assay: Fluorescence imaging / single-cell analysis of S. aureus reporter strain incubated with compounds in solution; assay type: cell-based, Staphylococcus aureus; details: 100 nM AIP-I, 3 h incubation
Description: FIG. 1 Includes FIG. 1A-FIG. 1C. FIG. 1A. illustrates the Agr QS responses of S. aureus to exogenously supplied agonists and antagonists. To follow the QS status of S. aureus cells growing on unmodified and chemically-modified surfaces, confocal microscopy and an S. aureus reporter strain that produced the fluorescent protein mKate2 in response to exogenous addition of AIP-I was used. The reporter strain was a ΔagrBDCA ΔRNAIII S. aureus mutant harboring a multicopy plasmid carrying agrCA driven by the native agrP2 promoter. […] The plasmid also harbored the Agr-activated agrP3 promoter fused to mkate2. Therefore, in response to exogenously provided AIP-I, the reporter strain fluoresced red. This QS response was repressed by the administration of TrAIP-II. A constitutively expressed sarAP1-gfpmut2 gene was introduced into the chromosome to enable normalization of QS responses^18. FIG. 1B. […]
FIG. 1B. Fluorescence images of the S. aureus reporter strain (pathways shown in panel FIG. 1A) after 3 h incubation with buffer or buffer containing 100 nM AIP-I agonist. […] Fluorescence images of the S. aureus reporter strain used in this study following 3 h incubation with TrAIP-II or with combinations of AIP-I and TrAIP-II. […]
FIG. 6. […] To identify the source of heterogeneity, the fluorescent protein distributions in individual cells was measured under different conditions. […]

[3] = target: AgrC-I receptor (Staphylococcus aureus (agr-I)); assay: cell-based or functional assay

Row | Substance | EC50 of Agr QS activation (agrP3-mkate2 reporter normalised to constitutive GFPmut2, solution assay, S. aureus reporter strain) [3] | IC50 of Agr QS inhibition when AIP-I is present at 100 nM (reporter solution assay) [3] | other results
1 | AIP-I |  |  | pEC50 [1]: 7.55 and 7.52; mKate2 production (QS-controlled reporter) [2]: mKate2 was produced only when AIP-I was supplied to the cells
2 | AIP-I (peptide) | 0.028 µM |  | 
3 | Alkyne-AIP-I (peptide) | 0.19 µM |  | 
4 | Alkyne-TrAIP-II (peptide) |  | 0.21 µM | 
5 | PEG330-triazole-AIP-I (peptide) | 1.1 µM |  | 
6 | PEG330-triazole-TrAIP-II (peptide) |  | 3.1 µM | 
7 | Surface-PEG10000-triazole-AIP-I (peptide) |  |  | activation of the Agr QS response at T=6 h against T=0 h (surface assay, microfluidic chambers) [3]: 25 fold; surface coverage density above which the QS response is saturated [3]: > 16000 µm^-2; surface coverage density below which no QS response is elicited [3]: < 210 µm^-2
8 | TrAIP-II (peptide) |  | 1.5 µM | decrease in QS inhibition when TrAIP-II is lowered from 2.5 µM to 250 nM, with 100 nM AIP-I [3]: 9 fold

— US20210186010A1, “SURFACES […] QUORUM SENSING MODULATORS” (priority 2015, published 2021)
